In a protein production outcome set (Wang et al. 2014):

Test: label from the status in PepcDB records

Row | Sequence | protein production
1 | MNLTYLFVLIWLAFLISSGVMLFSRGFLLARVSKTETSTCRRLSTNPNAEYVLTDEVVNEIFKDVNASSNLCLPQKSKVIVLVVDALKYEFGLYRANATDPLPYENKLVVLQELLQQNPDHARLMRFRADPPTTTLQRLKGLTTGSLPTFIDIGSNFASPEINEDNIIDQIVKNDLPVVFLGDSTWTDLYPHRFKRSYSYPSFDIFDLDSVDNEILKHLPKELESKDWQVLVAHFLGVDHCGHKHGPMHEEMARKLGEMNEVIRSVVAAMDNDTTLLVMGDHGMTASGDHGGDTDDETNALLFAYSKQHRFYGNDSGSDSEMLQQIDLVPTLATILGVPIPYSNLGLVNFNIVPDLRVPHLNKFQTLLLHSWQNAQQIYRYFFQYALENKRTFNVEQMDHLETEFILLTHRVQTVYNEVAFKSFVRDLNTNLRDILGTCREIWVRFDPTQMSQGLLFTFLPLFFIFLVVNNSRPADFPHIFKAKEVFYVYLINLAAGVFGYRYFKTFSFKTEEQGVIFFTAISSAVILAFHTLRHWTSIATNWSAVKRFGHMPTRLLLFGSMAVFFSNSFVIQEAKILSYLLAAAILLLSHELLRLSARLDFRTKFKASQFLRSTALRLILASVLAICLIRFAYTLFRCREEQGNCSDFVNTGGAGFSLKKPGTGKTYILAVVVLVVYTTLTRLYLRSCGNLTGNLPNVLLARYGPTVASICAGGHILLANSSIKHIQRTHIDAMALVIYGLLLVQIIVLSWAPLMTFVLPPRSSHTVTINGNESIVPEIFRKMKRMYEGDDDERRSHIPVVYGLATVYSSIVIAFGVFLALVMIVLLEPRASIGLVVCVAVGAILLSVHSILRYRTATSFESCVQPTFTALVGWFLLAHFCFFATSHQTTLSQIEWRAAFVGRTTGIGQSNLVSGALVILNTFCGPIFFFCMYSLLSTETFSLFALFPNLIRSCRSGGKVDASTSMSDLANEAVGFDMTRGELSLYEYEDVFLGTGFKLATQFFMLQGLKIFCAMLACTIHCRHLMVWKIFAPRFIYEALATFVSLPALIVGYLLVLRIHRGVDTLIKRINKAKVH | failed
2 | MNMGMVTLAAIRSVPMATTYIRGGTVVSPTGCQDLDVLIDGERIAALVDPELAPFDDPDRTFDHVLEAKGKYVIPGGVDAHTHMEMPFGGTVASDTFETGTRAAAFGGTTTIIDFAIQRQGERVQDTLAAWHAKARGNCAVDYGFHQILGGVDTDALKAMDELVAEGVTSFKLFMAYPGVYYSDDGQILRAMQQCAGNGALTMMHAENGIAIDQLVAQHIERGETSPYYHGVSRPWELEEEATHRAIMLAKITGAPLYVVHVSAKQAMEQIAGARGSGANVFAETCPQYLYLSLEEQLAAPGFEGAKWVCSTPLRSHEEGHQEELWRYIRTGDVATVSTDHCPFCFKGQKEMGLGDFSKIPNGMSGVEHRIDLMYQGVVNGKLSLQRWVDVCATTPARMFGLYPRKGIVSPGADADVVIYDPDGRTSIGFEKNHHSNVDHSTWEGFEVEGCVQTVLSRGTIVVDRGRYLGRKGHGVFLKRGLSQYLI | failed
3 | MNMKLQVTVLKGDVIENGYEVVDAVEGNGNNDDSGDDGGEDEEGSADDAEGKETKKGPVSDPDLNGEAGDNDDEPEGDDGNDDEDDDNHENDDEDEEEDEDENDDGGEEDDDEDAEVEEEEEEEDEDDEEALQPPKKRKK | failed
4 | MNMQKCDSTQEQQLTFEPRGHQLTNINVWTPDSQWLAYDVRPNSSTFSGLTIERVNCITGDIEVIYRSQHGAHVGVVTVSPDMPARYVFIHGPEHPDNHWHYDFHHRRGVIVTEPDRELAVTLDAMDITPPFTPGALRGGSHVHVFSPDGSRLSFTYNDHVLHEQDPALDCRNVAVALPLHGVNPPKQHPREYDGSHFCVLVTRTTPTPLAGSDQISRAYEEGWIGSQGYLKMDGTRQRWALAFIGDTLSAQGEKIPEIFIADLPEHERDYARAGEEPLEGTQTTMPAPPAGVRQRRLTFTAERHFPGLATSPRHWLRTSPDGSAIACLMKDDEGVVQLWLVSPNGGEPRQLTFTEGGIQSAFSWHPQGHSLVFVCDNSVMQCDSTTGQLWRLTARSAIAPMADAVVFSPDGTKVAFMREIDGLAQIFTVKVD | failed
5 | MNNGRRIGLIMIITGATLWGLSGPMIQWLFQHTNVSSIDFLTIRLLLAGIFILSFLLIKKQNIFQIWKHPRHSIQLIIFSILGMLGAQYAFIETVHISNAVTATLFQFLGPVFITIYVAFEQRKFPASMQLLAIITALTGTYFIITNGSIENIVLSKEAIIFGLLTAIGFAFYTLHPASLIKECGTTLVIGWGMLIGGIALLICNRSFGWHELSQTFTTKTFSMLILIIISGTLSFLLYIGSLKYLAATETSILSSIEPLVAAIVSIAWLNESFGAYQLLGGVCIVLSVIFLTMPQKENEPAFTSEQI | failed
6 | MNNIKRFFRYISKNAKYIDYPLVVTYLLLCLIGLVMVYSASMVAATKGSLTGGISVPGTYFYTRQLMYVIMSLVIVFFMAFFMNVKLLETIRFQKWMMIGIIILLAATLVVGSNINGSKSWINLGFMNLQASELLKIAIILYIPYMIEKKRPKVFKQPKLMTSPIILAGLCIALVLLQRDVGQTLLIMIIFVSILFYAGIGVQKSIKYGLLIIVGVVIIGSLFLIIGLVPDYLTARFSTLTNPFSQESGTGYHISNSLIAIGNGGLLGRGLGNSIMKLGYLPEPHTDFIFSIICEELGLVGGLVVICLLFFIVYRAFELANKTNSYFYKLVCVGVASYIGSQTFVNLGGISGTIPLTGVPLPFISFGGSSMISLSIALGLLLITGKQIRIEAYRKKQANKKKTHIGMTRRY | failed
7 | MNNKIYFTPGPSELYPTVRQHMITALDEKIGVISHRSKKFEEVYKTASDNLKTLLELPSNYEVLFLASATEIWERIIQNCVEKKSFHCVNGSFSKRFYEFAGELGREAYKEEAAFGKGFYPADITVPADAEIICLTHNETSSGVSMPVEDINTFRDKNKDALIFVDAVSSLPYPKFDWTKIDSVFFSVQKCFGLPAGLGVWILNDRVIEKSKALLAKRKSIGTYHTIPSMLEKARVNQTPETPNAMNIFLLGKVTGDMLQISADGIRKQTEEKAALINTYIESSKVFSFGVEDAKLRSMTTIVANTTMLPGEINKILEPFDMAVGAGYGSKKETQIRIANFPAHSLEQVHKLVQTLKEKIG | not failed
8 | MNNKLKTQAVEQLFQAILSLKDLDEAYDFFEDVCTINEILSLSQRFEVAKMLREHRTYLDIAEKTGASTATISRVNRSLNYGNDGYDRVFERLGMLEKESEDNK | not failed
9 | MNNKTKGIILITISALSFALMSTFVKLSGDLPSIEKSFFRNLVSCFVAFYLVKKDNALLFGHKENRLALIGRSALGTLGIWANYYAIDRLILSDATILNKLSPFFVIIFSYLFLKEKLKPIHIICLLAAFSGVLFIVRPSGNLASNFIPAIIGLCSAAFAGGAYTFVRYLGGKEKGATIVFFFSFFSIVTTFPIMLFQFETFSLEQFVFLILAGVAASCAQFALTAAYKYAPARDISIYDYTQVIFTALIGFVLFGDIPDKISLIGYVLILLASFSIFLYNKKEASK | not failed
10 | MNNNLQRDAIAAAIDVLNEERVIAYPTEAVFGVGCDPDSETAVMRLLELKQRPVDKGLILIAANYEQLKPYIDDTMLTDVQRETIFSRWPGPVTFVFPAPATTPRWLTGRFDSLAVRVTDHPLVVALCQAYGKPLVSTSANLSGLPPCRTVDEVRAQFGAAFPVVPGETGGRLNPSEIRDALTGELFRQG | not failed
11 | MNNPGLFQARWNLGKLVLCNLLPLALLGFWLWPTGQALCTVFDEWLFHHLNAPLASNSTWLHIWAVASLRPFDIVVGLIMLGLLIRGDWVFKAVDVRRAFFGFLSILILMVVIRALFSKLVAVMNWQHNSPSMVLEGAVHMSDYFPGWEKTWELKDRSSQSFPGDHASVLLIWGLFMGIFSRSIGQFLIVWGLTLLFMMPRLVAGAHWGQDDYIGGVLLAVLALGWGYYTPYAARMSNFLLRLTHPLFNLLSRMPVLSRMSVVRASSLLR | failed
12 | MNNQSVDVDLITRFDNEAKLHALDSVYAIAEFDLAGKLIEANPLFCKMLGYKKEDIIQKSHTLFLPEAQRQKHDHFWHDVIKGNINAGEFQRKTQKGDIIWLHAAYTPIIDHSGRRIGVIKLALDITQEKRLMSEHRAQLDAIENAQGVIEFDKDGYITHVNKHYLILTGYEAKEILGLHHKSLCDPIYTEQADYQTFWETLHRGHPISGRFHRLGKGNHSFWIQATYSPVMDSDGNVRKIIKYAHNITQNVETEKKAHQQGIILDILLSVHDSFLLDHNLPSACDKVFERLLDVTNSSFGFIATLQEDEDGQSLYLPAISNLAWDEETLTWYRHQRRTHGGLRLRKLDNLFGHVVTHNTVVCTNSLLRQKAGRDLPPIHPALHSLLGIPITHNGKTVGMIALANRREGYDQTMIELLAPLVKTLGIIIHARLLEDERTQIEASLRFNAGHDFLTGLPNRSSFFEQASAFFLLRQQNQHADKSCLAIIDIDLFKNINDQFGHLAGDAVLKELAMLMRMSLRQEDLVARIGGEEFIILLKDVPYQTAVMAIERIRKAIEQHTLEYDRQNLNFTISAGIAAYRSDLASVEDWIQLADENLYAAKRQGRNCVK | failed
13 | MNNRPQLIYILPNLFTAASAFLGVISIIASIHGNYYTALIYIILSLICDGLDGRVARLTNSTSKFGVEFDSLADLVAFGVAPAVLFYMAIGYDFGKLGSLITAFFVVFGAIRLARFNVTTGTYEPSVFIGLPIPTAAVVSAIWTYAFISYDFLKPYGVVFLVLQAILGLLMVSNIRYPSFKKLDFNRSSVLKVLIILIIIFSFLYLYPLESLVILASLYVLYGIIRVLYTIIVSKFKIRNQE | failed
14 | MNNSETPAPGPDSLLALAFPSDPQVSPDGKQVAFVLAQISEEDPAKPDKDFARPRYRSGLWLSEGGAARPLTHAETGRGDSAPRWSPDGQNLAFVRSAGEVKAALMLLPLKGGEARRVTHFKNGVSGPQWSPDGRFIAFTTTADTEDKRDERGEARVLTRPVYRANGADWLPERPAALWLYDVEADKLREWYAPEIGIGALSWWPDSRGVLIVQSEDEWQASQWRQDVYDLPLPTADAPAAPQKLLDWNSAAHGLAPHPDGQRFALIGRPAGKGNTEHAHLYLIENGQHRRLDTGHDHPVGDAVGGDCHVGAFPEGPRWLDGDTLLFSSTVRGSVGLFTAHIGGGVKAYDHDPQGVISAFTANEHGVALIRESATRFPEVELNGQRVTDLHARFPFPVREPQRVTFETELGEGEGWVLLPEGEQKVPALLNIHGGPHTDYGHGFTHEFQLMAARGYGVCYSNPRGSVGYGQAWVDAIYGRWGTVDADDLLNFFDRCLEAVPRLDAAKTAVMGGSYGGFMTNWITGHTTRFQAAITDRCISNLISFGGTSDIGLRFWDDELGLDFSRRADALKLWDLSPLQYVENVKTPTLIVHSVLDHRCPVEQAEQWYAALHKHQVPVRFVRFPEENHELSRSGRPDRRLTRLNEYFAWLERWL | failed
15 | MNNSINHKFHHISRAEYQELLAVSRGDAVADYIIDNVSILDLINGGEISGPIVIKGRYIAGVGAEYTDAPALQRIDARGATAVPGFIDAHLHIESSMMTPVTFETATLPRGLTTVICDPHEIVNVMGEAGFAWFARCAEQARQNQYLQVSSCVPALEGCDVNGASFTLEQMLAWRDHPQVTGLAEMMDYPGVISGQNALLDKLDAFRHLTLDGHCPGLGGKELNAYITAGIENCHESYQLEEGRRKLQLGMSLMIREGSAARNLNALAPLINEFNSPQCMLCTDDRNPWEIAHEGHIDALIRRLIEQHNVPLHVAYRVASWSTARHFGLNHLGLLAPGKQADIVLLSDARKVTVQQVLVKGEPIDAQTLQAEESARLAQSAPPYGNTIARQPVSASDFALQFTPGKRYRVIDVIHNELITHSHSSVYSENGFDRDDVSFIAVLERYGQRLAPACGLLGGFGLNEGALAATVSHDSHNIVVIGRSAEEMALAVNQVIQDGGGLCVVRNGQVQSHLPLPIAGLMSTDTAQSLAEQIDALKAAARECGPLPDEPFIQMAFLSLPVIPALKLTSQGLFDGEKFAFTTLEVTELEHHHHHH | not failed
16 | MNNVSEERVAEMIWDAVSEGATLKDVHGIPQDMMDGLYAHAYEFYNQGRLDEAETFFRFLCIYDFYNPDYTMGLAAVCQLKKQFQKACDLYAVAFTLLKNDYRPVFFTGQCQLLMRKAAKARQCFELVNERTEDESLRAKALVYLEALKTAETEQHSEQEKELEHHHHHH | not failed
